Results reported in paper PMC3490468.
“And” between values parts separate entries of the source, which are not always exact repeats. Identical values can stand only once.

Legend:
[1] = molecular target: truncated portal protein cn3 (E25-Q456) of bacteriophage CNPH82 (bacteriophage CNPH82); experiment: self-rotation function of X-ray diffraction data; crystal in space group C222(1), data to 4.2 A; MOLREP, resolution range 5-10 A, integration radius 87 A; structure not solved
[2] = molecular target: truncated portal protein cn3 (E25-Q456) of bacteriophage CNPH82 (bacteriophage CNPH82); experiment: SEC-MALS; 60 ul of 0.5 mg/ml cn3 on a BioSep SEC-s3000 column; 20 mM Tris pH 7.5, 500 mM NaCl, 10 mM MgCl2; size of the oligomer in solution

In the case of “truncated portal protein cn3 (E25-Q456) of bacteriophage CNPH82 (domain or fragment)”, the stoichiometry N (subunits per oligomer) [1] was 13 and the stoichiometry N (subunits per oligomer) [2] was 12.9 and 13.
